Measurements as given in patent publication US20110104715.

T1: Full-length APLP1 (APP-like protein 1), P51693
T1 chain: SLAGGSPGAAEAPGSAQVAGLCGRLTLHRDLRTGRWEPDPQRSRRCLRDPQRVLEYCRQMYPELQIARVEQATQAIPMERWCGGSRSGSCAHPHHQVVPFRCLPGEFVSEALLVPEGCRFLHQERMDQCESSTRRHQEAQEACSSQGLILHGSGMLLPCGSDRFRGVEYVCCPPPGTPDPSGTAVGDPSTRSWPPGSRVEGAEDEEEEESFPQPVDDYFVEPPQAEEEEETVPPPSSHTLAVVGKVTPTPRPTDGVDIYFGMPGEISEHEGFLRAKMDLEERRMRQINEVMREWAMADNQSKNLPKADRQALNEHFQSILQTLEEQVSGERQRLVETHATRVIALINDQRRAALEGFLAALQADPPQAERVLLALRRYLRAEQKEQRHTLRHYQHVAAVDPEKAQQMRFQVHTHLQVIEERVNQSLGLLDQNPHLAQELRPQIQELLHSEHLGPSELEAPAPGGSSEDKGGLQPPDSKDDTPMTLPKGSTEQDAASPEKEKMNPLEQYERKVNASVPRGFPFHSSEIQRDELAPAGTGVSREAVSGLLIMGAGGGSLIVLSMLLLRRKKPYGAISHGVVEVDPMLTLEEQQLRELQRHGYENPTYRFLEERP


How the values were obtained:
[1] = target: APP-C125 (C-terminal 125 amino acids of APP695), P05067
[2] = target: T1, Full-length APLP1 (APP-like protein 1), …
[3] = target: Full-length APLP2 (APP-like protein 2), Q06481
[4] = target: Wild-type human APP695 (β-amyloid precursor protein), P05067
[5] = target: APP D664A mutant (APP695), P05067

Full-length APLP2 (APP-like protein 2), Q06481, sequence (Q06481 32-763): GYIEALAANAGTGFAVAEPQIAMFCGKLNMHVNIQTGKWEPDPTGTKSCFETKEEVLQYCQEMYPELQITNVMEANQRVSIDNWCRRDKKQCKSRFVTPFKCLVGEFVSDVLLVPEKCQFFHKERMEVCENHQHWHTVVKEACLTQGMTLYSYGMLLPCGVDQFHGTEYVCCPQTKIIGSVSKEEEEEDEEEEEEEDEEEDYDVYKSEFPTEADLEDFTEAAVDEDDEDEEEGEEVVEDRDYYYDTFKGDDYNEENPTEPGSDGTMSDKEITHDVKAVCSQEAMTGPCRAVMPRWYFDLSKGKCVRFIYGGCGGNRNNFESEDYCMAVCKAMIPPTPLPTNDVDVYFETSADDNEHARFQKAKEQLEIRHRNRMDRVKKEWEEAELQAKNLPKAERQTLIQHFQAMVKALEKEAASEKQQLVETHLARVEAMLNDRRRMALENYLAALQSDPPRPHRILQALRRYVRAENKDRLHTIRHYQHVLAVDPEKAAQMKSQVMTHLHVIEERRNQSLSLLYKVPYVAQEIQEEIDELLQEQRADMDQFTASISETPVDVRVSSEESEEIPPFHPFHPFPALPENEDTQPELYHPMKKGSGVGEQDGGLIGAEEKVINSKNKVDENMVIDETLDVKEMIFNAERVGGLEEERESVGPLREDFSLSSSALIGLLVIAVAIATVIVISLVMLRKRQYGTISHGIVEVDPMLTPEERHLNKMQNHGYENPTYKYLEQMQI

Protein | in vitro caspase cleavage [1] | in vitro cleavage of 35S-labelled in vitro transcribed/translated protein [2] | in vitro cleavage of 35S-labelled in vitro transcribed/translated protein [3] | in vitro cleavage of 35S-labelled in vitro transcribed/translated protein [4] | generation of an APP-Neo-immunoreactive epitope by recombinant caspase in vitro [2] | generation of an APP-Neo-immunoreactive epitope by recombinant caspase in vitro [3] | generation of an APP-Neo-immunoreactive epitope by recombinant caspase in vitro [4] | generation of an APP-Neo-immunoreactive epitope by recombinant caspase in vitro [5]
Recombinant caspase-6 (protein) AFYKREMFDPAEKYKMDHRRRGIALIFNHERFFWHLTLPERRGTCADRDNLTRRFSDLGFEVKCFNDLKAEELLLKIHEVSTVSHADADCFVCVFLSHGEGNHIYAYDAKIEIQTLTGLFKGDKCHSLVGKPKIFIIQACRGNQHDVPVIPLDVVDNQTEKLDTNITEVDAASVYTLPAGADFLMCYSVAEGYYSHRETVNGSWYIQDLCEMLGKYGSSLEFTELLTLVNRKVSQRRVDFCKDPSAIGKKQVPCFASMLTKKLHFFPKSN | caspases-3, -6 and -8 are capable of cleaving APP | APLP1, on the other hand, was cleaved in vitro only by caspase-3, not by caspase-6 or -8 | Like APLP1, APLP2 may be cleaved in vitro by caspase-3 only, but with very low efficiency, if at all | APP can be cleaved by caspases-3 and -6, but not by caspase-8 | – | – | – | –
Recombinant caspase-3 (protein) SGISLDNSYKMDYPEMGLCIIINNKNFHKSTGMTSRSGTDVDAANLRETFRNLKYEVRNKNDLTREEIVELMRDVSKEDHSKRSSFVCVLLSHGEEGIIFGTNGPVDLKKITNFFRGDRCRSLTGKPKLFIIQACRGTELDCGIETDSGVDDDMACHKIPVEADFLYAYSTAPGYYSWRNSKDGSWFIQSLCAMLKQYADKLEFMHILTRVNRKVATEFESFSFDATFHAKKQIPCIVSMLTKELYFYH | caspases-3, -6 and -8 are capable of cleaving APP | APLP1, on the other hand, was cleaved in vitro only by caspase-3, not by caspase-6 or -8 | APLP2 may be cleaved in vitro by caspase-3 only, but with very low efficiency, if at all | APP can be cleaved by caspases-3 and -6, but not by caspase-8 | in vitro transcribed/translated APLP1 and APLP2 yielded APP-Neo immunoreactive cleavage products only when incubated in the presence of recombinant caspase-3 | in vitro transcribed/translated APLP1 and APLP2 yielded APP-Neo immunoreactive cleavage products only when incubated in the presence of recombinant caspase-3 | an APP-Neo-immunoreactive epitope was detected in immunoblots of in vitro transcribed/translated full length APP that had been incubated in the presence of recombinant caspase-3, but not caspase-7 or -8 | –
Recombinant caspase-7 (protein) AKPDRSSFVPSLFSKKKKNVTMRSIKTTRDRVPTYQYNMNFEKLGKCIIINNKNFDKVTGMGVRNGTDKDAEALFKCFRSLGFDVIVYNDCSCAKMQDLLKKASEEDHTNAACFACILLSHGEENVIYGKDGVTPIKDLTAHFRGDRCKTLLEKPKLFFIQACRGTELDDGIQADSGPINDTDANPRYKIPVEADFLFAYSTVPGYYSWRSPGRGSWFVQALCSILEEHGKDLEIMQILTRVNDRVARHFESQSDDPHFHEKKQIPCVVSMLTKELYFSQ | – | – | – | – | – | – | an APP-Neo-immunoreactive epitope was detected in immunoblots of in vitro transcribed/translated full length APP that had been incubated in the presence of recombinant caspase-3, but not caspase-7 or -8 | –
Recombinant caspase-8 (protein) SESQTLDKVYQMKSKPRGYCLIINNHNFAKAREKVPKLHSIRDRNGTHLDAGALTTTFEELHFEIKPHDDCTVEQIYEILKIYQLMDHSNMDCFICCILSHGDKGIIYGTDGQEAPIYELTSQFTGLKCPSLAGKPKVFFIQACQGDNYQKGIPVETDSEEQPYLEMDLSSPQTRYIPDEADFLLGMATVNNCVSYRNPAEGTWYIQSLCQSLRERCPRGDDILTILTEVNYEVSNKDDKKNMGKQMPQPTFTLRKKLVFPSD | caspases-3, -6 and -8 are capable of cleaving APP | APLP1, on the other hand, was cleaved in vitro only by caspase-3, not by caspase-6 or -8 | Like APLP1, APLP2 may be cleaved in vitro by caspase-3 only, but with very low efficiency, if at all | APP can be cleaved by caspases-3 and -6, but not by caspase-8 | – | – | an APP-Neo-immunoreactive epitope was detected in immunoblots of in vitro transcribed/translated full length APP that had been incubated in the presence of recombinant caspase-3, but not caspase-7 or -8 | APPD664A, did not yield detectable APP-Neo immunoreactive products after incubation with recombinant caspase-3, -7 or -8
